From patent EP4631959A2, “NOVEL MINIGASTRIN-DERIVED CHOLECYSTOKININ 2 RECEPTOR BINDING MOLECULES FOR IMAGING AND TARGETED RADIOTHERAPY” (priority 2022, dated 2024)
Read-outs that look alike come from different tables or passages of the source. Starred links: 1 amine or outer side, 2 acyl side, 3 side chain; linkers in the order of their positions; H or OH if unused. Non-standard residues stand in square brackets, D forms with d. Residues, ends and D or L forms follow the SMILES beside them. *: point of attachment. Benzoyl(4-SiFtBu2) = CC(C)(C)[Si](F)(c1ccc(C(=O)*)cc1)C(C)(C)C; DOTA = O=C(O)CN1CCN(CC(=O)O)CCN(CC(=O)*)CCN(CC(=O)O)CC1; PEG12 = NCCOCCOCCOCCOCCOCCOCCOCCOCCOCCOCCOCCOCCC(=O)O; d(γGlu) = O=C(O)[C@@H](CCC(=O)[*:2])N[*:1]; PEG8 = NCCOCCOCCOCCOCCOCCOCCOCCOCCC(=O)O; 1Nal = N[C@@H](Cc1cccc2ccccc12)C(=O)O; Hyp = O=C(O)[C@@H]1C[C@@H](O)CN1; NMeNle = CCCC[C@H](NC)C(=O)O; PEG4 = NCCOCCOCCOCCOCCC(=O)O; dDap = NC[C@@H](N)C(=O)O

What was measured:
[1] = target: T1, CCK-2R (Rattus norvegicus, UniProt P30553); test: Determination of IC50: CCK-2R affinity on AR4-2J cells, competition with [^177Lu]Lu-DOTA-PP-F11N; format: binding; conditions: AR4-2J cells
T1 construct: The CCK-2R expressing rat pancreatic tumor cells AR4-2J; host or cells: AR4-2J rat pancreatic tumor cells
T1 sequence (P30553 1-452): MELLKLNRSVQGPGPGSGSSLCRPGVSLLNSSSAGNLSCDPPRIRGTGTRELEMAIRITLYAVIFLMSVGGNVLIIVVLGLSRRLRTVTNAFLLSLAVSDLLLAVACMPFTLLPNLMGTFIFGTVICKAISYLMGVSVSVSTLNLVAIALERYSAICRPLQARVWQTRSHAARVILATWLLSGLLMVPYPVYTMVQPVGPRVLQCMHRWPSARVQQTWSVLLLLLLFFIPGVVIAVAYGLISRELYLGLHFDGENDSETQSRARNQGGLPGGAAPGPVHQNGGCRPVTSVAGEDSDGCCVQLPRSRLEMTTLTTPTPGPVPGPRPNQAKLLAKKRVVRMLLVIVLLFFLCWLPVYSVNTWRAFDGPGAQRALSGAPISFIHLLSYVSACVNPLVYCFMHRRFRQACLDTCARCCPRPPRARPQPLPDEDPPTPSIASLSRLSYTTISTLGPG
Procedure, shortened: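 Competitive displacement of 0.3 pmol/well [177Lu]Lu-DOTA-PP-F11N by compounds (10^-10 to 10^-4 M) on AR4-2J cells in BSA-supplemented medium, 3 h at 37 °C. Free label was collected from medium plus PBS rinse, and cell-bound label was recovered with 1 M NaOH, both measured by γ-counter. Each IC50 was determined twice, in triplicate.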

[2] = n-Octanol-PBS distribution coefficient (logD7.4); format: physicochemical; conditions: pH = 7.4, ^177Lu-labeled
Method: Approximately 1 MBq of the labeled tracer was dissolved in 1 mL of a 1/1 mixture (v/v) of phosphate buffered saline (PBS, pH = 7.4) and n-octanol in an Eppendorf tube (1.5 mL). After vigorous mixing of the suspension for 3 min at rt, the vial was centrifuged at 9,000 rpm for 5 min (Biofuge 15, Heraeus Sepatech, Osterode, Germany) and 200 µL aliquots of both layers were measured in a γ-counter. The experiment was repeated at least five times.

[3] = target: T2, Human serum albumin (HSA) (Homo sapiens, UniProt P02768); test: Determination of HSA binding on a Chiralpak HSA column; format: in vitro ADME; conditions: Tab. 8; metal not stated (Fig. 18: ^natLu)
T2 construct: purchased Daicel, Tokyo, Japan H13H-2433
T2 sequence (P02768 25-609): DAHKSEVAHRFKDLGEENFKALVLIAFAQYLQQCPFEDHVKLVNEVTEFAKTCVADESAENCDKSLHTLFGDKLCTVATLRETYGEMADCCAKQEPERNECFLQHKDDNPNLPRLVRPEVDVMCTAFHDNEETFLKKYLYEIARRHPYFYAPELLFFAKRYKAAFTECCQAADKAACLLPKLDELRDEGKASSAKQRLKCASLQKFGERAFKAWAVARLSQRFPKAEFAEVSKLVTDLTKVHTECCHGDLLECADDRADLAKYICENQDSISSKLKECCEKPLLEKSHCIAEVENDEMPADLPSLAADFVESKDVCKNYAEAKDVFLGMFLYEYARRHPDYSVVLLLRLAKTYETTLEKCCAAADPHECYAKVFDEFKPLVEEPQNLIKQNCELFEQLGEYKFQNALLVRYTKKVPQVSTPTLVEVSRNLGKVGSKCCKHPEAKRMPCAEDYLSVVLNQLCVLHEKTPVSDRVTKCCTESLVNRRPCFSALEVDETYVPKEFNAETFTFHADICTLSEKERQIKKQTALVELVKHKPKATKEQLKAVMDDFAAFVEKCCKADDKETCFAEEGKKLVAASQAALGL
Method: Human serum albumin (HSA) binding of the CCK-2R-targeted compounds was determined as reported by Valko et al., using a Chiralpak HSA column (50 x 3 mm, 5 µm, H13H-2433, Daicel, Tokyo, Japan) at a constant flow rate of 0.5 mL/min at rt. Therefore, an aq. solution of NH4OAc (pH = 6.9, 50 mM) as mobile phase A and isopropanol as mobile phase B were freshly prepared. In order to calibrate the column prior to the experiments, the retention times of nine reference substances with a HSA binding in the range of 13 to 99% were determined using a gradient of 100% A (0 to 3 min), followed by 80% A (3 to 40 min). Furthermore, all substances tested, were dissolved in a mixture (1/1, v/v) of A and B reaching a final concentration of 0.5 mg/mL. The HSA binding of all rhCCK ligands tested, was determined using the same gradient as for the calibration probes. The non-linear regression of the calibration experiments and the CCK-2R ligands (Fig. 29) was established using the OriginPro 2016G software (Northampton, United States).

[4] = ^natLu-labeled, read-out: IC50 [nM] (n = 3), ^natLu-labeled

| Structure (SMILES) | IC50 [1, 4] [nM] | IC50 ([1]; read-out: IC50 [nM] (n = 3), ^natGa-labeled, ^natGa-labeled) | logD7.4 (n ≥ 5), ^177Lu-labeled [2] | HSA binding [%] [3] [%] | logD7.4 (n ≥ 5), ^177Lu-labeled ([2]; listed as [^nat/177Lu]Lu-DOTA-rhCCK-75) | logD7.4 (n ≥ 5), ^177Lu-labeled ([2]; listed as [^nat/177Lu]Lu-DOTA-rhCCK-76) | IC50 ([1]; read-out: IC50 [nM] (n = 3), ^natLu-labeled, ^natLu-labeled) |
| --- | --- | --- | --- | --- | --- | --- | --- |
| CCCC[C@@H](C(=O)N[C@@H](CC(=O)O)C(=O)N[C@@H](Cc1cccc2ccccc12)C(N)=O)N(C)C(=O)[C@H](Cc1c[nH]c2ccccc12)NC(=O)CCOCCOCCOCCOCCNC(=O)CC[C@@H](NC(=O)CCOCCOCCOCCOCCOCCNC(=O)CC[C@@H](NC(=O)[C@@H](CNC(=O)c1ccc([Si](F)(C(C)(C)C)C(C)(C)C)cc1)NC(=O)CN1CCN(CC(=O)O)CCN(CC(=O)O)CCN(CC(=O)O)CC1)C(=O)O)C(=O)O [DOTA-rhCCK-68, DOTA-dap(SiFA)-γ-glu-(PEG)4-γ-glu-(PEG)3-Trp-(N-Me)Nle-Asp-1-Nal-NH2] | 15.4 ± 1.1 | 36.9 ± 5.4 | −1.65 ± 0.09 | 91.2 | – | – | – |
| CCCC[C@@H](C(=O)N[C@@H](CC(=O)O)C(=O)N[C@@H](Cc1cccc2ccccc12)C(N)=O)N(C)C(=O)[C@H](Cc1c[nH]c2ccccc12)NC(=O)CCOCCOCCOCCOCCNC(=O)CC[C@@H](NC(=O)CCOCCOCCOCCOCCOCCOCCOCCOCCOCCOCCOCCOCCNC(=O)CC[C@@H](NC(=O)[C@@H](CNC(=O)c1cc(C(=O)O)cc([Si](F)(C(C)(C)C)C(C)(C)C)c1)NC(=O)CN1CCN(CC(=O)O)CCN(CC(=O)O)CCN(CC(=O)O)CC1)C(=O)O)C(=O)O [DOTA-rhCCK-69, DOTA-dap(SiFA-ipa)-γ-glu-(PEG)11-γ-glu-(PEG)3-Trp-(N-Me)Nle-Asp-1-Nal-NH2] | 43.1 ± 1.7 | – | −2.11 ± 0.09 | 84.7 | – | – | – |
| CCCC[C@@H](C(=O)N[C@@H](CC(=O)O)C(=O)N[C@@H](Cc1cccc2ccccc12)C(N)=O)N(C)C(=O)[C@H](Cc1c[nH]c2ccccc12)NC(=O)CCOCCOCCOCCOCCNC(=O)CC[C@@H](NC(=O)CCOCCOCCOCCOCCOCCOCCOCCOCCNC(=O)CC[C@@H](NC(=O)[C@@H](CNC(=O)c1ccc([Si](F)(C(C)(C)C)C(C)(C)C)cc1)NC(=O)CN1CCN(CC(=O)O)CCN(CC(=O)O)CCN(CC(=O)O)CC1)C(=O)O)C(=O)O [DOTA-rhCCK-70, DOTA-dap(SiFA)-γ-glu-(PEG7-γ-glu-(PEG)3-Trp-(N-Me)Nle-Asp-1-Nal-NH2] | 12.6 ± 2 | – | −1.67 ± 0.08 | 89.3 | – | – | – |
| CCCC[C@@H](C(=O)N[C@@H](CC(=O)O)C(=O)N[C@@H](Cc1cccc2ccccc12)C(N)=O)N(C)C(=O)[C@H](Cc1c[nH]c2ccccc12)NC(=O)CCOCCOCCOCCOCCNC(=O)CC[C@@H](NC(=O)CCOCCOCCOCCOCCOCCOCCOCCOCCNC(=O)CC[C@@H](NC(=O)[C@@H](CNC(=O)C[N+](C)(C)Cc1ccc([Si](F)(C(C)(C)C)C(C)(C)C)cc1)NC(=O)CN1CCN(CC(=O)O)CCN(CC(=O)O)CCN(CC(=O)O)CC1)C(=O)O)C(=O)O [DOTA-rhCCK-71, DOTA-dap(SiFAlin)-γ-glu-(PEG)7-γ-glu-(PEG)3-Trp-(N-Me)Nle-Asp-1-Nal-NH2] | 13.3 ± 1.3 | – | −1.63 ± 0.06 | 89.1 | – | – | – |
| CCCC[C@@H](C(=O)N[C@@H](CC(=O)O)C(=O)N[C@@H](Cc1cccc2ccccc12)C(N)=O)N(C)C(=O)[C@H](Cc1c[nH]c2ccccc12)NC(=O)CCOCCOCCOCCOCCNC(=O)CC[C@@H](NC(=O)CCOCCOCCOCCOCCOCCOCCOCCOCCNC(=O)CC[C@@H](NC(=O)[C@@H](CNC(=O)c1cc(C(=O)O)cc([Si](F)(C(C)(C)C)C(C)(C)C)c1)NC(=O)CN1CCN(CC(=O)O)CCN(CC(=O)O)CCN(CC(=O)O)CC1)C(=O)O)C(=O)O [DOTA-rhCCK-72, DOTA-dap(SiFA-ipa)-γ-glu-(PEG)7-γ-glu-(PEG)3-Trp-(N-Me)Nle-Asp-1-Nal-NH2] | 52.3 ± 6.2 | – | −2.32 ± 0.03 | 89.3 | – | – | – |
| CCCC[C@@H](C(=O)N[C@@H](CC(=O)O)C(=O)N[C@@H](Cc1cccc2ccccc12)C(N)=O)N(C)C(=O)[C@H](Cc1c[nH]c2ccccc12)NC(=O)CCOCCOCCOCCOCCNC(=O)CC[C@@H](NC(=O)CCOCCOCCOCCOCCOCCOCCOCCOCCNC(=O)[C@@H](CNC(=O)c1ccc([Si](F)(C(C)(C)C)C(C)(C)C)cc1)NC(=O)CN1CCN(CC(=O)O)CCN(CC(=O)O)CCN(CC(=O)O)CC1)C(=O)O [DOTA-rhCCK-73, DOTA-dap(SiFA)-(PEG)7-γ-glu-(PEG)3-Trp-(N-Me)Nle-Asp-1-Nal-NH2] ({DOTA}-[dDap](Benzoyl(4-SiFtBu2))[PEG8][d(γGlu)][PEG4]W[NMeNle]D[1Nal]-NH2) | 15.6 ± 0.7 | – | −1.02 ± 0.06 | 90.4 | – | – | – |
| CCCC[C@@H](C(=O)N[C@@H](CC(=O)O)C(=O)N[C@@H](Cc1cccc2ccccc12)C(N)=O)N(C)C(=O)[C@H](Cc1c[nH]c2ccccc12)NC(=O)CCOCCOCCOCCOCCNC(=O)CC[C@@H](NC(=O)CCOCCOCCOCCOCCOCCOCCOCCOCCOCCOCCOCCOCCNC(=O)[C@@H](CNC(=O)c1ccc([Si](F)(C(C)(C)C)C(C)(C)C)cc1)NC(=O)CN1CCN(CC(=O)O)CCN(CC(=O)O)CCN(CC(=O)O)CC1)C(=O)O [DOTA-rhCCK-74, DOTA-dap(SiFA)-(PEG)11-γ-glu-(PEG)3-Trp-(N-Me)Nle-Asp-1-Nal-NH2] ({DOTA}-[dDap](Benzoyl(4-SiFtBu2))[PEG12][d(γGlu)][PEG4]W[NMeNle]D[1Nal]-NH2) | 12.1 ± 1 | – | −1.19 ± 0.07 | 87.2 | – | – | – |
| CCCC[C@@H](C(=O)N[C@@H](CC(=O)O)C(=O)N[C@@H](Cc1cccc2ccccc12)C(N)=O)N(C)C(=O)[C@H](Cc1c[nH]c2ccccc12)NC(=O)CCOCCOCCOCCOCCNC(=O)CC[C@@H](NC(=O)CCOCCOCCOCCOCCOCCOCCOCCOCCOCCOCCOCCOCCNC(=O)CC[C@@H](NC(=O)[C@@H](CNC(=O)C[N+](C)(C)Cc1ccc([Si](F)(C(C)(C)C)C(C)(C)C)cc1)NC(=O)CN1CCN(CC(=O)O)CCN(CC(=O)O)CCN(CC(=O)O)CC1)C(=O)O)C(=O)O [DOTA-rhCCK-75, DOTA-dap(SiFAlin)-γ-glu-(PEG)11-γ-glu-(PEG)3-Trp-(N-Me)Nle-Asp-1-Nal-NH2] | 19.2 ± 1.6 | – | −1.15 ± 0.05 | 90.9 | -1.15 ± 0.05 | – | – |
| CCCC[C@@H](C(=O)N[C@@H](CC(=O)O)C(=O)N[C@@H](Cc1cccc2ccccc12)C(N)=O)N(C)C(=O)[C@H](Cc1c[nH]c2ccccc12)NC(=O)CCOCCOCCOCCOCCNC(=O)CC[C@@H](NC(=O)CCOCCOCCOCCOCCOCCOCCOCCOCCOCCOCCOCCOCCNC(=O)CC[C@@H](NC(=O)[C@@H](CNC(=O)c1ccc([Si](F)(C(C)(C)C)C(C)(C)C)cc1)NC(=O)CN1CCN(CC(=O)O)CCN(CC(=O)O)CCN(CC(=O)O)CC1)C(=O)O)C(=O)O [DOTA-rhCCK-76, DOTA-dap(SiFA)-γ-glu-(PEG)11-γ-glu-(PEG)3-Trp-(N-Me)Nle-Asp-1-Nal-NH2] | 14.2 ± 0.9 | – | −1.82 ± 0.09 | 86.2 | – | -1.82 ± 0.09 | – |
| CCCC[C@@H](C(=O)N[C@@H](CC(=O)O)C(=O)N[C@@H](Cc1cccc2ccccc12)C(N)=O)N(C)C(=O)[C@H](Cc1c[nH]c2ccccc12)NC(=O)CCOCCOCCOCCOCCNC(=O)CC[C@@H](NC(=O)[C@@H]1C[C@@H](O)CN1C(=O)[C@@H]1C[C@@H](O)CN1C(=O)[C@@H]1C[C@@H](O)CN1C(=O)CC[C@@H](NC(=O)[C@@H](CNC(=O)c1ccc([Si](F)(C(C)(C)C)C(C)(C)C)cc1)NC(=O)CN1CCN(CC(=O)O)CCN(CC(=O)O)CCN(CC(=O)O)CC1)C(=O)O)C(=O)O [DOTA-rhCCK-83, DOTA-dap(SiFA)-γ-glu-(Hyp)3-γ-glu-(PEG)3-Trp-(N-Me)Nle-Asp-1-Nal-NH2] ({DOTA}-[dDap](Benzoyl(4-SiFtBu2))[d(γGlu)][Hyp][Hyp][Hyp][d(γGlu)][PEG4]W[NMeNle]D[1Nal]-NH2) | – | – | −1.50 ± 0.05 | 93.4 | – | – | 10 ± 0.9 |
